Data set [1] concerns xylose isomerase. As to the kind of experiment: In vitro xylose isomerase activity assay (sorbitol dehydrogenase/NADH coupled, A340; Km, specific activity, Ki for xylitol). The class given is biochemical, Saccharomyces cerevisiae.
Protocol: About 20 μg of soluble whole cell extract was incubated in the presence of 100 mM Tris, pH 7.5, 10 mM MgCl2, 0.15 mM NADH (Sigma, St. Louis, Mo.), and about 2 U sorbitol dehydrogenase (Roche) at about 30° C. […] A Beckman DU-800 was utilized with an Enzyme Mechanism software package (Beckman Coulter, Inc.), and the change in the A340 was monitored for 2-3 minutes.
Approximately 20 μg of soluble whole cell extract from each transformed cell line, prepared using Y-PER plus reagent as described above, was incubated in a solution containing about 100 mM Tris, pH 7.5, 10 mM MgCl ? 2, 0.15 mM NADH (Sigma, St. Louis, Mo.), and 2 U Sorbitol Dehydrogenase (SDH) (Roche, Indianapolis, Ind.) at about 30° C. […] A Beckman DU-800 spectrophotometer was utilized with an Enzyme Mechanism software package (Beckman Coulter, Inc, Brea, Calif.), and the change in the A340 was monitored for 2-3 minutes.
Approximately 20 μg of soluble whole cell extract from each transformed cell line was prepared using Y-PER plus reagent as described above was incubated in a solution containing about 100 mM Tris, pH 7.5, 10 mM MgCl2, 0.15 mM NADH (Sigma, St. Louis, Mo.), and 2 U sorbitol dehydrogenase (SDH) (Roche, Indianapolis, Ind.) at about 30° C. […] A Beckman DU-800 spectrophotometer was utilized with an Enzyme Mechanism software package (Beckman Coulter, Inc, Brea, Calif.), and the change in the A340 was monitored for 2-3 minutes.
Approximately 20 μg of soluble whole cell extract from each transformed cell line was prepared using Y-PER plus reagent as described above was incubated in a solution containing about 100 mM Tris, pH 7.5, 10 mM MgCl ? .2, 0.15 mM NADH (Sigma, St. Louis, Mo.), and 2 U Sorbitol Dehydrogenase (SDH) (Roche, Indianapolis, Ind.) at about 30° C. […] A Beckman DU-800 spectrophotometer was utilized with an Enzyme Mechanism software package (Beckman Coulter, Inc, Brea, Calif.), and the change in the A340 was monitored for 2-3 minutes.
The Clostridiales enzyme was further characterized at 1974 μg to confirm the presence of activity.
Data set [2] deals with xylose isomerase. Description: Heterologous xylose isomerase expression in yeast (active yes/no). The class given is cell-based, Saccharomyces cerevisiae. The note with it: xylose isomerase of the donor organism expressed in engineered yeast (S. cerevisiae).
Another data set deals with C5 strain. Description: In vivo evaluation of xylose isomerase constructs in C5 strain, fermentation on xylose. It is filed as cell-based, Saccharomyces cerevisiae. The following applies: final sample at 372 hours. An excerpt:
The engineered strain was designed to include the following genetic modifications: the native Pho13 gene (alkaline phosphatase specific for p-nitrophenyl phosphate) was disrupted by inserting a construct containing the native TLK1 gene (Transketolase-1); the native aldose reductase gene (Gre3) was disrupted by inserting a construct containing the native high-affinity glucose transporter-7 gene (HXT7); the native glucose-repressible alcohol dehydrogenase II gene (adh2) was disrupted by inserting a construct containing the native xylulokinase gene (XYLK); and the native orotidine-5′ phosphate decarboxylase gene (ura3) was disrupted by inserting a construct containing the native transaldolase 1 gene (TAL1). The resulting strain had the following genotype: pho13::TKL1, gre3::HXT7, adh2::XYLK, ura3::TAL1.
The C5 strain was transformed using standard protocols with either p426GPD (as a control) or the chimeric variants XI-R, XI-Rp5, XI-Rp10, or XI-Rp15. The transformed cells were grown on SC-glucose minus uracil initially and then passaged onto SC-xylose minus uracil. Cultures of each of the above constructs were made in SC-xylose minus uracil—and grown for one week. The cultures were grown aerobically at 30° C. with 250 rpm agitation, 1 vvm sparge of process air, 21% O2. The pH was controlled at about 5.0 with 1N NaOH. […] At 24 hours elapsed fermentation time the fermentation was switched to anaerobic conditions.
Oxygen was purged with 100% N2 sparge at 1 vvm until percent O2 was below 1%. Aeration was then set at 0.25 vvm 100% N2.
The final sample also measured biomass by dry cell weight.

One molecule from US8114974B2, “Engineered microorganisms with enhanced fermentation activity” (Verdezyne, Inc., priority 2009, dated 2012) can be followed below.

“And” between values parts separate entries of the source, which are not always exact repeats. Equal entries are not always repeated.

B1: Ruminococcus flavefaciens: native xylose isomerase from Ruminococcus flavefaciens strain 17 (SEQ ID NO: 31) (protein, listed as Ruminococcus flavefaciens)
chain: MEFFSNIGKIQYQGPKSTDPLSFKYYNPEEVINGKTMREHLKFALSWWHTMGGDGTDMFGCGTTDKTWGQSDPAARAKAKVDAAFEIMDKLSIDYYCFHDRDLSPEYGSLKATNDQLDIVTDYIKEKQGDKFKCLWGTAKCFDHPRFMHGAGTSPSADVFAFSAAQIKKALESTVKLGGNGYVFWGGREGYETLLNTNMGLELDNMARLMKMAVEYGRSIGFKGDFYIEPKPKEPTKHQYDFDTATVLGFLRKYGLDKDFKMNIEANHATLAQHTFQHELRVARDNGVFGSIDANQGDVLLGWDTDQFPTNIYDTTMCMYEVIKAGGFTNGGLNFDAKARRGSFTPEDIFYSYIAGMDAFALGFRAALKLIEDGRIDKFVADRYASWNTGIGADIIAGKADFASLEKYALEKGEVTASLSSGRQEMLESIVNNVLFSL
Consider B1, for which the “Specific Activity” value with xylose isomerase [1] (soluble whole cell extract, xylose 40-500 mM, 30° C., pH 7.5) is 1.718 µmol/min/mg. For the same molecule, the “Specific Activity” value with xylose isomerase [1] (total soluble crude extracts from S. cerevisiae, xylose concentrations between 40 and 500 nM (so in the source), Michaelis Mentin plots) came out at 0.9605 µmol/min/mg. Besides, the “Active? (yes/no)” value in the data set with xylose isomerase [2] is given as “Yes”. The Glucose with C5 strain was found to be 0 g/L. In addition, in the data set on C5 strain (listed as XI-R), the “Dry Cell Wt” value is 2.20 g/L and 2.03 g/L; the Ethanol is 15.65 g/L and 15.5 g/L; the Xylose is 3.14 g/L and 3.85 g/L.
